# Measurements reported in patent publication US20240067747A1 (SHANGHAI HUAOTA BIOPHARMACEUTICAL, published 2024).
# Residue numbers refer to the chain shown, from its start. Where two headings read alike, the source gives them in different places.
# T1: human CD73 on the cell surface of CHOK1-huCD73-3F4 cells (Huabo Biopharm) (human, UniProt P21589 27-549)
# T1 construct: whole, on cells; also called cells expressing human CD73; CD73 on cell membrane
# T1 sequence (looked up): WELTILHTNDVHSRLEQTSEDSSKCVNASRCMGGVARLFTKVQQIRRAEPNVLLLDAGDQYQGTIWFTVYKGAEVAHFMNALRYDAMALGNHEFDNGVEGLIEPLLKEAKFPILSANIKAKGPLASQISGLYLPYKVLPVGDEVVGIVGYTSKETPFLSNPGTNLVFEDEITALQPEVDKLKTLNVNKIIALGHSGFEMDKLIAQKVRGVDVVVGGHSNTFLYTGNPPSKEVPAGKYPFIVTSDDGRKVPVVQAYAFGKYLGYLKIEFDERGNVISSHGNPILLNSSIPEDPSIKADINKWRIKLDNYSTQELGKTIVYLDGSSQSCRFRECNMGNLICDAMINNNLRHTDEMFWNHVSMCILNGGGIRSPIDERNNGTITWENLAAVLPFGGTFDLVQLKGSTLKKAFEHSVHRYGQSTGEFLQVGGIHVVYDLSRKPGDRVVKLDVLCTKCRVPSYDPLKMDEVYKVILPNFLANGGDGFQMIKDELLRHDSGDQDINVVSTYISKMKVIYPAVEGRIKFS
# T2: Human CD73 (as used in the hybridoma screening of Table 1) (human, UniProt P21589 27-549, limits assumed)
# T2 sequence (looked up): T1 sequence (looked up)
# B1: 900584 (screened antigen-binding protein targeting CD73) (antibody, V domains shown)
# VH: QVQVQQPGTELVKPGASVKLSCKASGYTFTGYWMHWVKQRPGQGLEWIGMIHPNSGSTYYNEKFKSKATLTVDRSSSTAYMQLSSLSSEDSAVYYCARYYGTTYEWYFDVWGTGTTVTVSS
# VL: DIQMTQTTSSLSASLGDRVTISCRASQDISNYLNWYQQKPDGTVKPLIYYTSSLHSGVPSRFSGSGSGTDYSLTISDLEHEDIATYFCQQGYTLPFTFGGGTKLEIK
# notes: It was detected with PE-goat anti-human-Fc
# B2: 900759 (Oleclumab antibody sourced from MedImmune, MEDI 9447) (antibody, human IgG1, lambda, L234A L235A, V domains shown)
# VH: EVQLLESGGGLVQPGGSLRLSCAASGFTFSSYAYSWVRQAPGKGLEWVSAISGSGGRTYYADSVKGRFTISRDNSKNTLYLQMNSLRAEDTAVYYCARLGYGRVDEWGRGTLVTVSS
# VL: QSVLTQPPSASGTPGQRVTISCSGSLSNIGRNPVNWYQQLPGTAPKLLIYLDNLRLSGVPDRFSGSKSGTSASLAISGLQSEDEADYYCATWDDSHPGWTFGGGTKLTVLG
# B3: 124A9 murine monoclonal antigen-binding protein (hybridoma clone 124A9) (antibody, V domains shown)
# VH: B1 VH with V4L, T9A, G31S, M34I, E46D, R74K, S87T, T102S, T103D
# VL: DIVMTQSQKFMSTSVGDRVSITCKASQNVRTAVVWYQQNPGQSPKALIYLASNRHTGVPDRFTGSGSGTDFTLTISNVHSEDLADYFCLQHWNYPYTFGGGTKLEIK
# Key:
# [1] = target: T1, human CD73 on the cell surface of …; experiment: flow cytometry on CHOK1-huCD73-3F4 cells, PE-goat anti-human-Fc
# Procedure: All antigen-binding proteins were diluted to 30 μg/ml with 1% BSA in PBS solution (1% BSA/PBS) and then 3-fold diluted for 11 gradients. The diluted antigen-binding proteins were added to a 96-well U-shaped plate at 20 μL per well; and a negative control (with 1% BSA/PBS added only) was set up at the same time. The suspension of cells (CHOK1-huCD73-3F4, Huabo Biopharm) expressing human CD73 during the logarithmic growth phase were centrifuged (1000 rpm×5 min) to discard the culture medium; and the cells were resuspended with 1% BSA/PBS until the density of viable cells was 1×10⁶/mL, and were added, at 20 μL (2×10⁴ cells) per well, to the 96-well U-shaped plate with the […] antigen-binding protein to react for 30 min at room temperature. After reaction, the 96-well U-shaped plate was resuspended with 1% BSA/PBS, centrifuged (300 g×3 min) to discard the supernatant, and washed once in such a way. PE-goat anti-human-Fc (Jackson ImmunoResearch, #109-115098) diluted at 1:200 was added to react for 15 min in the dark at room temperature. After reaction, the 96-well U-shaped plate was resuspended with 1% BSA/PBS, centrifuged (300 g×3 min) to discard the supernatant, washed three times in such a way, and finally resuspended with 100 μL of 1% BSA/PBS for each wall; and the fluorescence intensity of a PE channel was detected with a flow cytometer (BD, #Cantoll).
# [2] = target: T1, human CD73 on the cell surface of …; experiment: cell-based or functional assay
# [3] = target: T1, human CD73 on the cell surface of …; experiment: cell-based or functional assay; remark: listed apart in the source
# [4] = target: T2, Human CD73 (as used in the hybridoma …); experiment: Biacore affinity screen of hybridoma clones
binder,measurement,setting,value
B1,EC50,[1],2.9 µg/mL
same,"EC50 of inhibition of the enzyme activity of CD73 on cell membrane (AMP/ATP, CellTiter-Glo)",[2],11.1 µg/mL
B2,"EC50 of inhibition of the enzyme activity of CD73 on cell membrane (AMP/ATP, CellTiter-Glo)",[3],0.0417 µg/mL
B3,Kd,[4],2.16 nM
